Measurements taken from patent US20220356229A1 (published 2022).
Numbering of substitutions follows the chain as printed.

B1: anti-SARS-CoV-2 antibody 1139 (antibody, V domains shown)
VH: QVQLVQSGAEVKKPGASVKVSCKASGYTFSSYEINWVRQATGQGLEWMGRMTLNSGNTGYAQNFQGRVTMTRDTSISTAYMELSGLRSEDTAVYYCARMRSGWPTHGRPDDYWGQGTLVTVSS
VL: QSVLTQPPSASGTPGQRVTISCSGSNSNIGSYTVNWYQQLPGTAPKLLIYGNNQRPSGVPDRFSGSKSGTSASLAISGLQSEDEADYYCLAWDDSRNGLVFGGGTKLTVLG
B2: anti-SARS-CoV-2 antibody 936 (antibody, V domains shown)
VH: EVQLVESGGGLVQPGRSLTLSCAGSGFTFDDYAMHWVRQAPGKGLEWVSGISWNSGSIGYADSVKGRFTISRDNAKNSLYLQMNSLRAEDTALYYCAKDVSYDSSGYYNNAFDIWGQGTMVTVSS
VL: DIQLTQSPSFLSASVGDRVTITCRASQGISSYLAWYQQKPGKAPKLLIYAASTLQSGVPSRFSGSGSGTEFTLTISSLQPEDFATYYCQQLYSYPVTFGQGTRLEIKR
B3: anti-SARS-CoV-2 antibody 1135 (antibody, V domains shown)
VH: EVQLVESGGGLVQPGRSLRLSCAASGLTFEDYAMHWVRQVPGKGLEWVSGISWNSGTIGYADSVKGRFIISRDNAKNSLYLQMRSLRAEDTALYYCAKDVGFGELLYYAFDIWGQGTMVTVSS
VL: QSALTQPASVSGSPGQSITISCTGTSSDVGGYNYVSWYQQHPGKAPKLMIYDVSNRPSGVSNRFSGSKSGNTASLTISGLQAEDEADYYCSSYTSSSTVVFGGGTKLTVLG
B4: anti-SARS-CoV-2 antibody 1036 (antibody, V domains shown)
VH: QVQLVQSGAEVKKPGSSVKVSCKASGGTLSSYTISWVRQAPGQGLEWMGRIIPILGIADYAQKFQGRVTITADKSTTTAYMDLSSLGSEDTALYYCASAPKDWSSGFDYYYGMDVWGQGTMVTVSS
VL: DIVMTQTPLSLSVTPGQPASISCKSSQSLLNSDGKTYLYWYLQKAGQPPQLLIYEVSNRFSGVPERFSGSGSGTDFTLKISRVEAEDVGVYYCMQSVQLPPYTFGQGTKLEITR
B5: anti-SARS-CoV-2 antibody 1149 (antibody, V domains shown)
VH: QVQLVQSGAEVKKPGASVKVSCKASGYTFASYDINWVRQATGQGPEWMGWMIPNIGNTGYAQKFQGRVTMTRNTSISTAYMELSSLTSEDTAVYYCARVSRLFNDFGLRHEAPVDFWGQGTRVTVSS
VL: QSVLTQPPSVSGAPGQRVTISCTGSSSNIGAGYDVHWYQQLPGTAPKLLIYGYSSRPSGVPDRFSGSKSGTSASLAITGLQAEDEADYYCQSYDSSLSVLFGGGTKLTVLG
B6: antibody 333 (antibody, V domains shown)
VH: QVHLVESGGGVVLPGRSLRLSCSASQFIFSNYDMHWVRQSPGMGLEWVAGISSDGSDKYYIDSVRGRFTISRDNAKNTLFLQMNSLTTEDTAVYSCAKGGGKFGQYWGRGTLVTVSS
VL: AIQMTQSPSSLSASVGDRVTITCRASQVIRNDLAWFQQKPGEAPNLLVYSASNLQSGVPSRFSGSGSGTDFTLTISSLQPEDFATYYCLQDYSYPYTFGQGTKLDMK
B7: antibody 327 (antibody, V domains shown)
VH: QVQLVESGGGVVQPGRSLRLSCAASGFNLSNYAMHWVRQASGKGLEWVSLISYDGSIKYYTDSVKGRFTVSGDNSKNTLFLQMNSLRPDDSALYYCVRGGVSGPNSFDMWGQGTTVTVSS
VL: DVVMTQSPLSLPVTLGQPASISCRSSQSLVYSDGNTYVNWFQQRPGQSPRRLIYQVSIRASGVPDRFSGSGSGTDFALKISRVEAEDVGIYYCMQGTHWPVTFGQGTKVEIK
B8: antibody 331 (antibody, V domains shown)
V domain 1: QITLKESGPTLVKPTETLTLTCSFSGFSLTKTGEAAGWIRQAPGRALEWVTVIFWDDDKRYSPSLQNRISVTKDTSKNQVVLRMTNVARFDTGTYFCWAMGGPGKEYFGQGTLVAVSS
V domain 2: QSVLTQPPSVSGAPGQRVTISCTGTSSSIGPYSDVHWYQHVSGKAPRLLIFGNSNRPSGVPDRFSGSKSGTSASLVIAGLQAEDEADYYCQSYDSSLGEIYVFGTGTTVTVL
B9: antibody 339 (antibody, V domains shown)
V domain 1: B8 V domain 1 with K31R, N67S, I69L, S70T, R83T, G93A, L113Q
V domain 2: B8 V domain 2
B10: antibody 340 (antibody, V domains shown)
VH: QVQLVQSGAEVKKPGASVKVSCKASGYTFTSYDINWVRQATGQGLEWMGWMNPNSGNTGYAQKFQGRVTMTRNTSISTAYMELSSLRSEDTAVYYCARGRYCTGGVCWGDWYFDLWGRGTLVTVSS
VL: QSVLTQPPSVSGAPGQRVTISCTGSSSNIGAGYDVHWYQQLPGTAPKFLIYGNSNRPSGVPDRFSGSKSGTSASLAITGLQAEDEADYYCQSYDSSLSGPVFGGGTKLTVL
B11: antibody 328 (antibody, V domains shown)
VH: QVQLQESGPGLVKPSGTLSLTCAVSGGSISSSNWWSWVRQPPGKGLEWIGEIYHSGSTNYNPSLKSRVTISVDNSKNQFSLKLSSVTAADTAVYYCARESVAAAGISYYYYGMDVWGQGTTVTVSS
VL: DIQMTQSPSSLSASVGDRVTITCRASQGIRNDLGWYQQKPGKAPKRLIYAASSLQSGVPSRFSGSGSGTEFTLTVSGLQPEDFATYYCLQYNSSPLTFGGGTKVEIK
B12: antibody 348 (antibody, V domains shown)
VH: QVQLVQSGSELKKPGASVKVSCKASGYTFTSYAMNWVRQAPGQGLEWMGWINTNTGNPTYAQGFTGRFVFSLDTSVSTAYLQISSLKAEDTAVYYCARDHELPNTSSWFGHFEYWGQGTLVTVSS
VL: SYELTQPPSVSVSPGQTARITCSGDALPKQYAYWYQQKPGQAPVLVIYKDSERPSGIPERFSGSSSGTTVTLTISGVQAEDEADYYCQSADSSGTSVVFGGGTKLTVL
B13: antibody 329 (antibody, V domains shown)
VH: EVQLVESGGGLVQPGGSLRLSCAASGFTFSSYWMHWVRQAPGKGLVWVSRINSDGSSTSYADSVKGRFTISRDNAKNTLYLQMNSLRAEDTAVYYCAREGIVATITLDYWGQGTLVTVSS
VL: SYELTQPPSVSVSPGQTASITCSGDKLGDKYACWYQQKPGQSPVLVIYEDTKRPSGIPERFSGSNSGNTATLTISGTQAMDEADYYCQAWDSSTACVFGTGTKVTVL
B14: antibody 345 (antibody, V domains shown)
VH: QVQLQESGPGLVKPSQTLSLTCTVSGGSISSGDYYWSWIRQPPGKGLEWIGYIYYSGSTYYNPSLKSRVTISVDTSKNQFSLKLSSVTAADTAVYYCARVGMVDNWNFEGNWFDPWGQGTLVTVSS
VL: QSALTQPRSVSGSPGQSVTISCTGTSSDVGGYNYVSWYQQHPGKAPKLMIYDVSKRPSGVPDRFSGSKSGNTASLTISGLQAEDEADYYCCSYAGSVVFGGGTKLTVL
B15: antibody 332 (antibody, V domains shown)
VH: QVTLRESGPALVKPTQTLTLTCTFSGFSLSTSGMCVSWIRQPPGKALEWLALIDWDDDKYYSTSLKTRLTISKDTSKNQVVLTMTNMDPVDTATYYCARIHDDILTGYHYVDYWGQGTLVTVSS
VL: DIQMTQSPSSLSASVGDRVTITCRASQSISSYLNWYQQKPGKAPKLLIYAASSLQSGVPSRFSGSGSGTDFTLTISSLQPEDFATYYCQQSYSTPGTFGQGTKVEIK
B16: antibody 343 (antibody, V domains shown)
VH: QVQLVESGGDVVQPGTSLRLSCAASGFTFNNYGFHWVRQAPGKGLEWVALISSDGASTHYADSVKGRFTISRDSSVNTLYLQMNSLSLEDTAVYYCATGHCGTTCYYFDYWGQGTLVSVSS
VL: DIQVTQSPSYLSASVGDRVTITCRASQTISTFLQWYQQKVGKAPKLLIYAASTLQSGVPSRFSGSGSGTDFSLTISSLQPEDFATYYCQQSYSAPLSFGGGTKVEIK
B17: antibody 363 (antibody, V domains shown)
VH: EVQLLESGGGLVQPGGSLRLSCAASGFTFSTYAMSWVRQAPGKGLEWVSAISGSGGSTYYADSVKGRFTISRDNSKNTLYLQMNSLRAEDTAVYYCASGYSPDYWGQGTLVTVSS
VL: not shown
B18: antibody 344 (antibody, V domains shown)
VH: QVQLVESGGGVVQPGRSLRLSCAASGFTFSSYAMHWVRQAPGKGLEWMAVISYDGSNKYYADSVKGRFTISRDNSKNTLYLQMNSLRAEDTAVYFCAKGYSGSYYEPFDYWGQGTLVTVSS
VL: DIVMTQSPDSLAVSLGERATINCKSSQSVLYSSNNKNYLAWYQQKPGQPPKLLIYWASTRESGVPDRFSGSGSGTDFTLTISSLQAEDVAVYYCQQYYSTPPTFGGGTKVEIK

molecular target: SARS-CoV-2 full length Spike protein, wild type, expressed on CHO cells (SARS-CoV-2, UniProt P0DTC2 14-1273)

In order of rising “median fluorescence intensity, fold over isotype control” value:
1. B4  10.2 fold over isotype
2. B3  10.9 fold over isotype
3. B5  19.2 fold over isotype
4. B1  20.3 fold over isotype
5. B2  33.1 fold over isotype

molecular target: SARS-CoV-2 full length Spike protein, wild type (SARS-CoV-2, UniProt P0DTC2 14-1208)

In order of rising “bead binding signal (fold over isotype)” value:
1. B6  1.08 fold over isotype
2. B11  1.2 fold over isotype
3. B16  1.2 fold over isotype
4. B15  1.22 fold over isotype
5. B18  404 fold over isotype
6. B7  413 fold over isotype
7. B13  497 fold over isotype
8. B10  547 fold over isotype
9. B14  562 fold over isotype
10. B8  850 fold over isotype
11. B12  869 fold over isotype
12. B9  874 fold over isotype
13. B17  1030 fold over isotype
